Assay results as given in a protein production outcome set (Wang et al. 2014).

Assay: label from the status in PepcDB records
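Note: failed if final PepcDB status was selected cloned or expressed and not failed if soluble or beyond.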

MGHHHHHHSHMADVEDGEETCALASHSGSSGSKSGGDKMFSLKKWNAVAMWSWDVECDTCAICRVQVMDACLRCQAENKQEDCVVVWGECNHSFHNCCMSLWVKQNNRCPLCQQDWVVQRIGK
protein production: failed

MSRKYFVGGNFKCNGTKESLKTLIDSFKQVESSNSEVYVFPTSLHISLVKEFFGNDHPGVFKIGSQNISCTGNGAFTGEVSCEMLKDMDVDCSLVGHSERRQYYSETDQIVNNKVKKGLENGLKIVLCIGESLSERETGKTNDVIQKQLTEALKDVSDLSNLVIAYEPIWAIGTGVVATPGQAQEAHAFIREYVTRMYNPQVSSNLRIIYGGSVTPDNCNELIKCADIDGFLVGGASLKPTFAKIIESAQ
protein production: not failed

PDQCKPPQVTCRSATCAQVNWEVPLSNGTDVTEYRLEWGGVEGSMQICYCGPGLSYEIKGLSPATTYYCRVQALSVVGAGPFSEVVACVTPPS
protein production: not failed

MRTDFNVFTTGGAPMKQIIRQFSIGTVAYAIMQVASAQVAITNVVPMNIPGQGTEIRVMFNGLPPQPQAYQLEQPARLILDFDKAGQKLAKSLIPVTTNEASSIDVSSDDKRARVVVNLKDAGAFTTRVEGNVFILKINNIQSTATPVATSAPAPQQGIGNIGFQRGAQGEGLVVIDLQGTNTPVDVQQQGSKVVVRFPGIKIPTHLARRLNTTDFATPVASIDSYNDGSNGVISIQSTGSYEYMAYQAENKLTISLKRPQDNVRLNSKNNQNYTGKKISLDFQDIEVRRVLQLLADFTNINMVTADSVQGNITLHLKDVPWDQALDIILKTKNLDKRRNGNVIWIAPVSELIKSEEDEAKAIAQSTKLAPLQTEYILLKYAKAADIEKLITQGRNSGTSNSNTNGSATVEPLGDSVGTLLSPRGTISLDPRTNTLIINDTSQKIDQIRKMIDLLDIPVKQVMIEARIVRATTSFSKEMGVKWGILSQGINQNSNLLVGGSETTLWNLRNPDSNGTYTIERPDNLNVDLGVTTTGASSIAFGLISLSDFMLDLELSALQADGYGEVISTPKVMSADKQKAKVATGVEVPYQSTTNSAAGSTATTSFKEALLSLEVTPNITPDGKILMELNIANDSINSYAQNGEAILNKNTINTNVLVNNGETVVLGGVFEQTTNNAVTKVPFLGDLPYVGRLFKKTAKSEAKNELLIFVTPRIVNDTIVGNH
protein production: failed

MEIAVERVFTKEILKRAVNLFHVTVEEKPLGDFENYIFKAKGDNDEDYVLRLTHSSHRSKQEVEAELDFLRYVAENGAKVAGPLYSTSRNLVEEIVAEDGTFFFASLFIYAKGEQVKGAESPYWGDAYFEAWGKAIGQLHRLTMDYPKTDYRDTWEEDESGIVNELEDGQVKEIAAVLMDEIKALPVERETFGLMHGDIHQGNFHYDGKELTIFDFDDAAYNYFIHDLAMVLYYSVLFTPWTAEEKTDFARKQLQVLRKGYEYEHRLADSWYESLPLFLRLRDIGLYGTLQKKFKGKDMPDNFLKLSEELYERIIKREAIVNI
protein production: failed

LHRIVDKMHDTSTGIRPSPNMEQGSTYKKTFLGSSLVDWLISSNFAASRLEAVTLASMLMEENFLRPVGVRSMGAIRSGDLAEQFLDDSTALYTFAESYKKKVSSKE
protein production: not failed

MSGLAQRSDDPWLAALPAAVLYGAWAAYANQDGGLAGMGVAALLQGAASLLATRFGLYLLQCLGRRHGLAQRQAPLLVVLLLTAPMAALHWLSGTPHPLASVAPSFVIGWLYFALWARRRPGRRQASGA
protein production: failed

MPKERVDVLAYKQGLFNTREQAKRGVMAGLVVNVINGERYDKPGEKIDEATELKLKGDKLKYVSRGGLKLEKALKVFVISVDGQITLDIGASTGGFTDVMLQNGAQLVYAVDVGTNQLVWKLRQDERVCSMEQYNFRYAEPSDFERGQPTFASIDVSFISLNLILPALSKILTDGGQVVALIKPQFEAGREQIGKHGIVKDKSVHETVLETVTTFATNYGFTVKELDFSPIQGGHGNIEFLAYLEKSAQAQNQVLTKIKSIVEQAHKEFKKNEET
protein production: not failed

MLNLQRMSLFIAVVDSGSFTAAAAASGQTKAVVSFNIRQLEKELGVTLLLRSTRRLTLTDAGVLFYQKGVNLLNAAKNLQDEVRASHSGLGGELRITTTSEFGEQVVIPVLAQFSQRHPDLRIRHMSSSHHADLIAERFDVAIRLGSLADSRYRAALISRFTILPVAAPQWLARNPVSSLESLAQAEWIIHERLPTPLRWTVTNNHGQHSRLEISKAGKISVDSARSLMAFALAGSGVALLPQWLVNTALEDGTLIHLLPDYHFPRQGIYAVYPDARHVSTKVRAFIDFLRSQWDCGEHAPSS
protein production: failed

MQLNQTNTPFNEEQLALINQLLPMLTPEQQHWLSGYLLNPATTSVSDNKTDIQENEAGITETETSTSTDQSVSEPVSASTEPLDVHVLYGTETGNAEEIAETFETKLKSQNLNVHLWDMDDFPRDSLPEVEHLFIICSTQGVGEPPINALDLYDYLHGDDAPQLDQVNFAVLALGDQDFPDFCQAGKDFDYILGQLGANRVADRVDCDFDYEETAEQWITNMLELLTQASSNTNEETPSVENEDVTIEEPQAPYSKSNPFQAEVLKNTILTQPEASREVRHLEISLEGYREAYEPGDSLVVIPQNDPVLVNQLIDALNWDAETPIQMNDSDSMRSLKEALTHDFEIAKLTPVLMKNAAELLGNPMLNANIQKSEWVQNYIYGKDVIDLIRDFTPVALEPNMLPQLLRKLPPREYSIASSNKVNPNSVHITVRVVKYEAHRRERFGVCSVQLADRTSVGDKLPVYLKKNPNFKFPYDTETPVIMIGAGTGIAPYRAYLQERAYLNLKGEQWLIFGNQNYHHDFLYKDDLEQWLEEGVLSKLDLAFSRETENKIYVQHRIEENSAEFYKWIQAGATIYLCGNKDEMASGVHESLIKVLIKEGNLDETEAEAYLTEMIKNQRYQRDVY
protein production: failed

SVDLAHIRQVRAEADCLFNNDEVEAAIGRVAEAINRDLGETNPVVFCVMNGGLIFSGKLLPLLDFPLELSYLHATRYRNETSGGELFWKAKPEISFIDRDVLIIDDILDEGHTLSAIIDFCKHAGARAVHTAVLVDKEHERKARPDLKASFTGLYCADRYVFGYGMDYKGYWRNA
protein production: failed

MKRSSLLVRMVISIFLVFLILLALVGTFYYQSSSSAIEATIEGNSQTTISQTSHFIQSYIKKLETTSTGLTQQTDVLAYAENPSQDKVEGIRDLFLTILKSDKDLKTVVLVTKSGQVISTDDSVQMKTSSDMMAEDWYQKAIHQGAMPVLTPARKSDSQWVISVTQELVDAKGANLGVLRLDISYETLEAYLNQLQLGQQGFAFIINENHEFVYHPQHTVYSSSSKMEAMKPYIDTGQGYTPGHKSYVSQEKIAGTDWTVLGVSSLEKLDQVRSQLLWTLLGASVTSLLVCLCLVWFSLKRWIAPLKDLRETMLEIASGAQNLRAKEVGAYELREVTRQFNAMLDQIDQLMVAIRSQEETTRQYQLQALSSQINPHFLYNTLDTIIWMAEFHDSQRVVQVTKSLATYFRLALNQGKDLICLSDEINHVRQYLFIQKQRYGDKLEYEINENVAFDNLVLPKLVLQPLVENALYHGIKEKEGQGHIKLSVQKQDSGLVIRIEDDGVGFQDAGDSSQSQLKRGGVGLQNVDQRLKLHFGANYHMKIDSRPQKGTKVEIYINRIETS
protein production: failed

MNVEKLKRLQAQVRIGGKGTPRRKKKVMHQTAATDDKKLQSSLKKLSVSTIPGIEEVNIIKDDLTVIHFNNPKAQASLSANTFAVTGHGETRKVVEMLPDILPQLGQETVVQLRMYANAMNSQKGAPGSGDGPLPAEEDDDVPLLVGDFDEVAKVEATKQPVHEPKESAEIKAKDKQQQQPKKEQKQSAKVPETTNPSENPKEKQENKKGQAKNNKKGDPQTNKDKTNKSKDQAKGQPAPQANKETTQAAQALKQNPSKPAVQQKKDQVLAVDQKIEANGAIQKAQQPKPAETKSTDQKVEPKSAEKQVDKAKPIEQTKTKESKVEHPKPAQKQLDQNTQAKPTAERSEAKPVVPTPEPQKSAPPAVQTLAQIVALPAEKPANEAVAAPKAEEQKKDSSGPAKVEPAITPSAPQPVTTAEPPKSALKQDSPPKSAPKQGSPPKNVPKQESPPQSAPKQDSPPKGAPKQDSPPKGAPKQDSPPKGAPKQDSAPQQKTPPPVKQEVAPAKQDEPPAKQDAPPAKQDAPVPVPEVIKTLAPEVPNVSQAPAQPQGQAALASEKPADAPKAIEEPKAAPKKESPPPTKPVTATVPVAPATPAEAPSPLAPSTPPSTPTSVPPSAATVTPPSPATVTPPSPAVVTPPQKQSAAPQAGIKKQEAGTKTKQQQPANKPQQPQKQPPGGAGGSAGPGGNKGVQKQPNPNAKPAVAPKPAQATPKPAAASPKASPNQTNPQQQQGKAANKASPPKQTGPTGGQQKSAANASKATASPKSAASPKATSPKAGTPTNPASASGGPN
protein production: failed
